This passage reports stoichiometry N results from PMC5178350.

The target of the assay is Haloferax volcanii deoxyhypusine synthase (T7-His-DHS) (Haloferax volcanii). In words: SEC; Sephacryl S-200 HR gel filtration column equilibrated with buffer A (20 mM Tris-HCl pH 8, 2 M NaCl), flow rate 0.3 mL/min; oligomer size from the estimated molecular weight.

Turning to “Haloferax volcanii deoxyhypusine synthase (T7-His-DHS) (enzyme)”, the stoichiometry N was 4.
